Usually pKd stands for the negative decadic logarithm of the Kd, by convention in mol/L.

pKd: −log10 of the molar value.

Experimental findings from the Immune Epitope Database (IEDB) are described below.

For one experiment, the target named is HLA-A*31:01. Put plainly: IEDB peptide-MHC binding, purified MHC/competitive/radioactivity; filed as Kd, often an IC50 or EC50 that approximates it; ≥ and ≤ were set here for values at or beyond the usual limits of such assays. The following applies: source organism: Vaccinia virus WR.
With TIAGGVCYY, the pKd is 4.79.
With VLNRHAITMY, the pKd was ≤ 4.15.
For the sequence LIKFISDNKK, the pKd is 7.37.
For LTILDDNLY, the pKd is ≤ 4.50.
On to TQFNFNGHTY, for which the pKd is 5.39.
Turning to IILSKIPYLR, the pKd is 8.32.
With KFTILEYLY, the pKd was 5.99.
ITTDDLVKSY: the pKd was ≤ 4.15.
Consider PTFQLLNMIK, for which the pKd is 4.90.
Same read-out and setting: the same measure for DSFLRKIGDK: 5.45.
In the case of IQTSVNTVVR, the pKd was 6.44.
On to PVETLFGSY, for which the pKd was ≤ 4.21.
Regarding SMDVLAEKKY, the pKd is 4.77.
Take IINFTISMRY: the pKd was 5.85.
Take PFKVINLPK: the pKd is 5.20.
Take KIVNGVLSR: the pKd was 5.85.
The same measure, in the same setting: the figure for EQQQSFMPK is 5.28; for MTLVPVLEK it is 7.01; for WLSMTDEMR it is 5.75.
Regarding STQSVLCVK, the pKd is 6.94.
On to IINDKGKQY, for which the pKd is ≤ 4.11.
As for EALEYLSELK, the pKd was 4.75.
On to ITDMINASLK, for which the pKd was 4.97.
Same read-out and setting: the figure for ILKKLSSIK is 5.50.

Another experiment concerns the target HLA-A*33:01. The description is as above. The following applies: source organism: Lassa virus Josiah.
GVVRVWDVK: the pKd is ≤ 4.62.

Still in this experiment, the particulars now being: source organism: Mammarenavirus juninense.
In the case of NKQYIHCFRK, the pKd is 4.76.

The same experiment, now with this note: source organism: Mammarenavirus tacaribeense.
With QYIHCFRKPH, the pKd was 6.85.

Staying with this experiment, now noted: source organism: SARS coronavirus Tor2.
Take AQGLVASIK: the pKd was ≤ 4.50.
For LVLLILMTAR, the pKd is 5.26.
The same measure, in the same setting: the same measure for GANYLGKPK: ≤ 4.11.
Same read-out and setting: the same measure for YVKSPKFSK: 5.12; for KTVQFCDAMR: 5.82.
Consider RVYANLGER, for which the pKd is ≤ 4.34.
Turning to TLQGPPGTGK, the pKd is 5.09.
In the case of ATSRTLSYYK, the pKd was 5.21.
In the case of KVNSTLEQY, the pKd is ≤ 4.30.
Consider IQFMMSRRR, for which the pKd was 5.84.
Still for that read-out and setting: the figure for AVLDMCAALK is 6.12; for KFVFPLNSK it is ≤ 4.27; for VFAYVGCYNK it is 6.47.

Still in this experiment, the particulars now being: source organism: Vaccinia virus Copenhagen.
NTIVFGIYK: the negative-log Kd (pKd) was ≤ 4.11.

Still in this experiment, the particulars now being: source organism: Vaccinia virus WR.
Consider AAKYVEHDPR, for which the pKd is 5.83.
With HIASKINNNR, the negative-log Kd (pKd) is 5.23.
Regarding ELYDTSPTK, the pKd is ≤ 4.36.
As for IISEEYLSK, the pKd was ≤ 4.23.
For the sequence FSLESDSIK, the pKd was 5.65.
On to MVDELVTRK, for which the pKd is 5.69.
On the same count and under the same terms, the figure for TIAGGVCYY is ≤ 4.29.
Turning to VLNRHAITMY, the negative logarithm of the Kd (pKd) is ≤ 4.15.
Take LIKFISDNKK: the pKd was ≤ 5.00.
LTILDDNLY: the negative-log Kd (pKd) is ≤ 4.16.
Consider TQFNFNGHTY, for which the pKd was 4.79.
In the case of IILSKIPYLR, the pKd is 6.60.
The same measure, in the same setting: the figure for KFTILEYLY is 5.04.
Same read-out and setting: the figure for ITTDDLVKSY is ≤ 4.15; for PTFQLLNMIK it is ≤ 4.15.
Same read-out and setting: the figure for DSFLRKIGDK is 5.71; for IQTSVNTVVR it is ≤ 4.52; for PVETLFGSY it is ≤ 4.11.
In the case of SMDVLAEKKY, the pKd was ≤ 4.53.
Regarding IINFTISMRY, the pKd is 5.28.
PFKVINLPK: the pKd was ≤ 4.11.
Same read-out and setting: the figure for KIVNGVLSR is 5.15; for EQQQSFMPK it is 5.26; for MTLVPVLEK it is 5.88.
In the case of WLSMTDEMR, the pKd is 5.20.
For the sequence STQSVLCVK, the pKd is 4.81.
Same read-out and setting: the figure for IINDKGKQY is ≤ 4.11; for EALEYLSELK it is 5.25.
Take ITDMINASLK: the negative logarithm of the Kd (pKd) was ≤ 4.56.
In the case of ILKKLSSIK, the pKd was 5.81.

The target in the next experiment is HLA-A*68:01. The description is as above. The following applies: source organism: Lassa virus Josiah.
Turning to GVVRVWDVK, the pKd is 6.89.

The experiment is the same for the next values; noted with them: source organism: Mammarenavirus juninense.
On to NKQYIHCFRK, for which the pKd was 5.82.

Still in this experiment, the particulars now being: source organism: Mammarenavirus tacaribeense.
QYIHCFRKPH: the negative-log Kd (pKd) was ≤ 4.24.

The same experiment, now with this note: source organism: SARS coronavirus Tor2.
On to AQGLVASIK, for which the pKd was ≤ 4.49.
For LVLLILMTAR, the negative-log Kd (pKd) is 5.17.
As for GANYLGKPK, the negative logarithm of the Kd (pKd) was 5.46.
The same measure, in the same setting: the same measure for YVKSPKFSK: 7.18; for KTVQFCDAMR: 7.05.
RVYANLGER: the negative-log Kd (pKd) is 6.22.
On to TLQGPPGTGK, for which the pKd is 6.65.
For ATSRTLSYYK, the pKd is 7.82.
Consider KVNSTLEQY, for which the pKd was 6.02.
As for IQFMMSRRR, the pKd is 5.83.
In the case of AVLDMCAALK, the pKd was 6.93.
For the sequence KFVFPLNSK, the negative-log Kd (pKd) is 5.06.
Turning to VFAYVGCYNK, the pKd was 7.19.

The experiment is the same for the next values; noted with them: source organism: Vaccinia virus Copenhagen.
As to NTIVFGIYK, the pKd is 5.95.

Staying with this experiment, now noted: source organism: Vaccinia virus WR.
On to AAKYVEHDPR, for which the pKd is 6.60.
The same measure, in the same setting: the figure for HIASKINNNR is 7.73.
For the sequence ELYDTSPTK, the pKd is 8.39.
IISEEYLSK: the pKd is 5.11.
On to FSLESDSIK, for which the pKd is 6.73.
On the same count and under the same terms, the figure for MVDELVTRK is 6.10; for TIAGGVCYY it is 6.22.
On to VLNRHAITMY, for which the pKd is 4.77.
The same measure, in the same setting: the figure for LIKFISDNKK is 7.33; for LTILDDNLY it is 6.42; for TQFNFNGHTY it is 6.58.
Turning to IILSKIPYLR, the pKd is 9.11.
For KFTILEYLY, the pKd is 6.09.
In the case of ITTDDLVKSY, the pKd is 5.99.
PTFQLLNMIK: the pKd was ≤ 5.00.
For DSFLRKIGDK, the negative logarithm of the Kd (pKd) was 5.20.
IQTSVNTVVR: the pKd was 5.84.
Regarding PVETLFGSY, the pKd is ≤ 4.47.
Turning to SMDVLAEKKY, the pKd was 5.58.
As to IINFTISMRY, the pKd was 6.16.
Regarding PFKVINLPK, the pKd is 4.81.
Take KIVNGVLSR: the pKd is 5.69.
Still for that read-out and setting: the same measure for EQQQSFMPK: 6.88; for MTLVPVLEK: 8.24; for WLSMTDEMR: 7.46.
Turning to STQSVLCVK, the pKd was 8.50.
As for IINDKGKQY, the pKd was ≤ 4.11.
As for EALEYLSELK, the pKd is 6.98.
On to ITDMINASLK, for which the pKd was 7.12.
Turning to ILKKLSSIK, the pKd is 5.32.
